Source: the supplement of paper PMC10567573

B1: ESRRA (parent)
chain: LGVAQRSLPLQDELAFAEDLVLDE
B2: LMNB1 (parent)
chain: LYKEELEQTYHAKLENARLSSEMN
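Further: lentivirally expressed fusions sorted by FACS into six bins by GFP to DsRed ratio, PSI derived from sequencing read proportions per bin multiplied by bin number.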

Variants of: B1
Assay: protein stability index of a GFP-peptide fusion (GPS, HEK-293T) (PSI 1-6); higher = more stable
Settings: c terminus: a fixed tail appended
Work on LGVAQRSLPLEDELAFAEDLVLDE yielded a protein stability index of 4.87.
MGVAQRSLPLQDELAFAEDLVLDE showed a protein stability index of 2.63.
Work on LGVAQRSLPLVDELAFAEDLVLDE yielded a protein stability index of 3.14.
For LGVAQRSLPLQDYLAFAEDLVLDE, the protein stability index was 3.5.
In the case of LGVAQRSLMLQDELAFAEDLVLDE, the protein stability index is reported as 3.53.
In the case of LGVAQRSLPLQDELAFAEDLVCDE, the protein stability index is reported as 3.76.
For LGVAQRSLPLQMELAFAEDLVLDE, the protein stability index was 2.37.
Work on LGVAQRSLPLQNELAFAEDLVLDE yielded a protein stability index of 3.19.
In the case of LGVAQRSLPLQDELAFAEDFVLDE, the protein stability index is reported as 4.98.
Variant LGVAQRSLPLQDELAFAELLVLDE has a protein stability index of 2.16.
Work on LGVAQRSAPLQDELAFAEDLVLDE yielded a protein stability index of 3.17.
Work on LGVAQRSLPLQDQLAFAEDLVLDE yielded a protein stability index of 2.99.
In the case of LGVAQRSLPLQDELAFAEDLNLDE, the protein stability index is reported as 5.49.
RGVAQRSLPLQDELAFAEDLVLDE gave a protein stability index of 2.18.
For LGVAQRSLPLQDELAFAEDLVKDE, the protein stability index was 2.74.
For LGVAQRSLPLQDELAFAEDLVEDE, the protein stability index was 5.71.
Variant LGVAQRSLPFQDELAFAEDLVLDE has a protein stability index of 4.97.
For LGVAQQSLPLQDELAFAEDLVLDE, the protein stability index was 3.81.
Work on LGVAQRSLPLQDELFFAEDLVLDE yielded a protein stability index of 4.42.
Variant LGVAQRSLPLQDELAFAEDLVLRE has a protein stability index of 2.51.
In the case of LGVAQRSHPLQDELAFAEDLVLDE, the protein stability index is reported as 2.88.
LGVAQRSLPLQDELASAEDLVLDE showed a protein stability index of 4.66.
LGVAQRSLPLQDELAFWEDLVLDE showed a protein stability index of 2.02.
For LGNAQRSLPLQDELAFAEDLVLDE, the protein stability index was 3.1.
With LGVAQRSLPLQDELAFAEDLVLYE the protein stability index was 2.3.
Variant LGVAQRSLPLQDELAFAEDLVLFE has a protein stability index of 5.28.
For LGVAQRSLPLQDELAFVEDLVLDE, the protein stability index was 4.77.
In the case of LGVAQRSLPPQDELAFAEDLVLDE, the protein stability index is reported as 4.33.
With LGVAQRSLPLQDELAFAEDDVLDE the protein stability index was 5.36.
With LGVAHRSLPLQDELAFAEDLVLDE the protein stability index was 2.71.
Work on LGVKQRSLPLQDELAFAEDLVLDE yielded a protein stability index of 2.58.
Variant LGVAQRSLPLQDELMFAEDLVLDE has a protein stability index of 3.49.
In the case of LGVAQRSLPLQDMLAFAEDLVLDE, the protein stability index is reported as 3.16.
In the case of LNVAQRSLPLQDELAFAEDLVLDE, the protein stability index is reported as 3.08.
LGVADRSLPLQDELAFAEDLVLDE gave a protein stability index of 2.77.
In the case of LGVAQRSLPLQDELAFALDLVLDE, the protein stability index is reported as 2.89.
LGVAQRSLPWQDELAFAEDLVLDE gave a protein stability index of 4.84.
With LGVAQRHLPLQDELAFAEDLVLDE the protein stability index was 2.29.
With LGVASRSLPLQDELAFAEDLVLDE the protein stability index was 4.29.
With LGVWQRSLPLQDELAFAEDLVLDE the protein stability index was 2.3.
HGVAQRSLPLQDELAFAEDLVLDE showed a protein stability index of 2.98.
Variant LGVAQRSLPLMDELAFAEDLVLDE has a protein stability index of 3.65.
Work on LGVAQRSLPLQDELAFAECLVLDE yielded a protein stability index of 1.82.
LGVAQRSLPLQDELAFAEDLRLDE gave a protein stability index of 4.83.
LGVAQRSLPLQDTLAFAEDLVLDE showed a protein stability index of 3.92.
With LGVAQRSLNLQDELAFAEDLVLDE the protein stability index was 4.18.
LGVAQRSLPLQDELYFAEDLVLDE gave a protein stability index of 4.29.
Work on LGVAQRSLPLQDELAFAEDLVLDF yielded a protein stability index of 2.42.
NGVAQRSLPLQDELAFAEDLVLDE gave a protein stability index of 2.58.
LGVAQRSLPLQDCLAFAEDLVLDE showed a protein stability index of 3.38.
With LGVAQRSLPLQDELAFAEDLVIDE the protein stability index was 3.55.
For LGVAQRSLPLQDELAFAEDLVLDH, the protein stability index was 2.57.
Work on LGVAQRSNPLQDELAFAEDLVLDE yielded a protein stability index of 2.91.
In the case of LGVAQRSLALQDELAFAEDLVLDE, the protein stability index is reported as 4.37.
Variant LGVAQRSLPLQDELAFAESLVLDE has a protein stability index of 2.21.
LGVAQRSLPLQDELAFAEDLVLDY showed a protein stability index of 2.53.
LGVAQRSMPLQDELAFAEDLVLDE showed a protein stability index of 3.25.
LGVAQRSWPLQDELAFAEDLVLDE showed a protein stability index of 3.63.
In the case of LGVAQRSLLLQDELAFAEDLVLDE, the protein stability index is reported as 3.89.
With LGVAQRSLPLQDELAFAEDLVDDE the protein stability index was 5.13.
Variant LGVTQRSLPLQDELAFAEDLVLDE has a protein stability index of 2.43.
For LGVAQRSLPLQDELAFAEDLVLDT, the protein stability index was 3.11.
With LGVAQRSLPLKDELAFAEDLVLDE the protein stability index was 2.
Variant LGVAQRSLPLQDELWFAEDLVLDE has a protein stability index of 3.22.
LGVAQRSLPLQDELAMAEDLVLDE gave a protein stability index of 2.81.
With LGGAQRSLPLQDELAFAEDLVLDE the protein stability index was 3.15.
With LWVAQRSLPLQDELAFAEDLVLDE the protein stability index was 1.79.
Work on LGVAQRRLPLQDELAFAEDLVLDE yielded a protein stability index of 2.52.
In the case of LGVAQRSLPLQDELALAEDLVLDE, the protein stability index is reported as 2.96.
With LGVAQRSLPLQAELAFAEDLVLDE the protein stability index was 3.13.
LGVAQRSLPHQDELAFAEDLVLDE gave a protein stability index of 5.26.
Work on LGVAQRSLPLQDELAFAEKLVLDE yielded a protein stability index of 2.49.
LGVAQRSLPLQDPLAFAEDLVLDE showed a protein stability index of 4.71.
LGVAQRSLPLQDELPFAEDLVLDE gave a protein stability index of 5.28.
LGVAQRSLPLQDELAFYEDLVLDE gave a protein stability index of 3.39.
Variant LGVAQRSLPLQDELAFSEDLVLDE has a protein stability index of 4.49.
LGVAQRSLPLQWELAFAEDLVLDE gave a protein stability index of 2.04.
For LGVAQRSLPLQGELAFAEDLVLDE, the protein stability index was 3.59.
Work on LGVAQRSLPLQDELAFAEDLVLNE yielded a protein stability index of 1.88.
With LGVAQRSLPLQDELAFAEDVVLDE the protein stability index was 3.67.

Variants of: B2
Assay: as above
Settings: c terminus: a fixed tail appended
LYKEEEEQTYHAKLENARLSSEMN gave a protein stability index of 4.49.
For LYKMELEQTYHAKLENARLSSEMN, the protein stability index was 2.18.
LTKEELEQTYHAKLENARLSSEMN gave a protein stability index of 4.08.
For LYKEELEQTYHAKLENAGLSSEMN, the protein stability index was 3.35.
In the case of LGKEELEQTYHAKLENARLSSEMN, the protein stability index is reported as 4.15.
With LYKEELEQTYHAKLENAYLSSEMN the protein stability index was 2.24.
In the case of LYKEELEQTYHARLENARLSSEMN, the protein stability index is reported as 2.55.
In the case of LYKEELEQTYHDKLENARLSSEMN, the protein stability index is reported as 4.61.
With LYKEELEQTYHAKLENARLPSEMN the protein stability index was 3.18.
With LYKEELEQTYHAKLENARGSSEMN the protein stability index was 3.88.
With LPKEELEQTYHAKLENARLSSEMN the protein stability index was 3.06.
Variant LYKEELEQTYHAPLENARLSSEMN has a protein stability index of 4.37.
For LYKEELHQTYHAKLENARLSSEMN, the protein stability index was 2.53.
In the case of LYKEELEQTYHAKLENAQLSSEMN, the protein stability index is reported as 3.14.
